Test results from publication PMC6610666 (2019).

Target: mouse CBP TAZ1 (residues 340-439) (mouse, UniProt P45481 340-439)
Assay: ITC

Sequence of mouse CBP TAZ1 (residues 340-439) (P45481 340-439): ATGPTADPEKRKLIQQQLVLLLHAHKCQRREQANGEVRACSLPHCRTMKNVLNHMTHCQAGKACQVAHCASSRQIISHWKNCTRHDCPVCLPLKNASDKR

Kd: 700 nM
Binder: HDYIYNLDESEGVCDLFD (domain or fragment) [human E2F4 transactivation domain (residues 390-407)]
